experiment: soluble on expression in E. coli; label from the status in PepcDB or PDB records

Sequence	soluble on expression in E. coli
MKERKFINEAVKRLLVCEYVVKETENAGFGNMVMKRTPFGTNITLYVNRPGLVIGRRGSKVQQMTDTLEKKYGIETPQIEVKDVKDPDLNPSVIAKKIALSLEKGWSYRKAGNTSLNRTIQAGAKGVLIKISGKISGERARYQKFIYGNVKYSGEPGSKGMITGFSTAKLKVGILGVTVKILNPEYKLPDVFSIENITGGEEVGTESKADQTDVEGRETGNAEES	not soluble
MKESLLTLTEKIMFTTTVLKPTITTPITMLITTMRTLVAMKIRHYWKMMAIKDRKIQIPPVKYQMELSIRTLEINLLKNVKETEANLLKRRTDRENKRHYEFGFFYNLRIHNIYIPTSFFFFNSIV	soluble
MKESYYSIGEVSKLANVSIKALRYYDKIDLFKPAYVDPDTSYRYYTDSQLIHLDLIKSLKYIGTPLEEMKKAQDLEMEELFAFYTEQERQIREKLDFLSALEQTISLVKKRMKRQMEYPALGEVFVLDEEEIRIIQTEAEGIGPENVLNASYSKLKKFIESADGFTNNSYGATFSFQPYTSIDEMTYRHIFTPVLTNKQISSITPDMEITTIPKGRYACIAYNFSPEHYFLNLQKLIKYIADRQLTVVSDVYALIIPIHYSPKKQEEYRVEMKIRILDHHHHHH	soluble
MKFCSLCGATVVQRIPDGDNRLRYVCDACHTVHYQNPRIVAGSLPVWDGQVLLCRRAIAPRLGYWTLPAGFMENGETLAQAAARETEEEANARIGDLQLYTLFDLPHISQVYLFFRAELLDLDFSAGDESLEVRLFDEAEIPWSELAFPTIGRTLECYFSDRREGCFPVRNEAIAPMLASYKKD	not soluble
MKFGTVWKYYFTESLLKATIRTPSQLNLAPNALRPVLDQLCRLFPQNPTVQIRPIRLAGVRGEEIKAQASATQLIFHIHGGAFFLGSLNTHRALMTDLAARTQMQVIHVDYPLAPEHPYPEAIDAIFDVYQALLVQGIKPKDIIISGDSCGANLALALCLRLKQQPELMPSGLILMSPYLDLTLTSESLRFNQKHDALLSIEALQAGIKHYLTDDIQPGDPRVSPLFDDLDGLPPTLVQVGSKEILLDDSKRFREKAEQADVKVHFKLYTGMWHNFQMFNAWFPEAKQALADIAEFAHSLDLD	soluble
MKFIVKPHPEIFVKSESVRKRFTKILECNIRNIVKSRTESVAVFNRRDHIEVTSESNEYHAEVLEILTHTPGIHHVLEVKQSEFKDLHDIYEQVLELSRPLIENKTFVVRAKRRGKHDFTSIELERYVGGGLNQAVESARVKLHNPDVTVKVEVSGDKLNQVLARHKGLGGFPLGTQEDVLSLISGGFDSGVSSYLHIKRGSKVHYCFFNLGGPAHEIGVKQVSHYLWNKYGSSAKVRFISVDFEPVVAEILEKVDDGQMGVILKRMFMRAAGMIAEKFKIEALVTGEALGQVSSQTLTNLRHIDNVTDTLILRPLINWDKEDIINLAREIGTEDFAKTMPEYCGVISKKPTVKAVKEKLEAEEAKFDFSILEKVVYEARQMDIRDIAKESEQAAPEVEQVQAVEEHAVVLDIRSPDEEDDNPLEIAGVDVKHIPFYKLGTQFGDLDQSKTYLLYCDRGVMSRLQALYLQEQGFNNVKVYRP	not soluble
MKGIEVENLKFSHNGREILHDINFEIDKGSFLIILGPNGAGKTTLLRCIAGILKYKGSIKVLGNDIKELSRIELAKLLAYVPQRIEPGFLRVFDFVLLGRKPYMGLNPGRKDLKAVEDALRLLGIQRLEDRIMKTLSGGELQKVAIARAIAQETPVILLDEPTNNLDPKSQIEVMEIIKDLVKRGKTVVTVMHDLTLALRFGEEFLFLKDGRSTGLLTREELEEKILSETYGVKIRVARVEGEVIPLVGL	soluble
MKGIMVQGTASDVGKSLICTALCRIFARRGYKVTPFKSQNMSNNSYITVEGLEIGRAQGIQAEAAMEEASVYMNPILLKPRNDREAEIVCFGQAVDTVSGVKYRDGFYKRGLEAIKQALATLSQSFDMVVIEGAGSPVEVNLNDRELVNMKVAELADVPVILVADIERGGVFASLYGTLELLQPNERKRVVGIIVNKFRGDPELFSSGVQWIEQHLGVPVLGVLPHLPGVRIEGEDSLSKGQVTSVLPRDQSIDIAVLDLPYLSNYTDLEPFRYEEDVAIRFVSSVDALGRPDAIILPGTKSTFHDLQILKEKGFKERLHEYVTTDGTVVAICGGFQMLGHRLIDVAGSDTGIKGATIDGLDLAPVETRFAEKKKTVRSLGQLLHPFGTAKDIYGFEIHLGETDIVDPSIPAFLRVGNHTDGVYLHEGRLIGTYFHHLFFNDDFRSGWLNTLRRKKGLRERPTVELEKCRRASYDQLADEVERVLHVDSLLEKMERWGETS	soluble
MKGLFVTIEGPEGSGKTTLIQSLLPYFEQKEQKVMATREPGGIAISEDIRTILHKQEYTMMEARTEALLYAAARRQHLVEKVMPALNEDYLVLCDRFIDSSLAYQGYARGLGMDKVFEINRFATEDCMPSLTIYLDIEPEVGLARIAKDAGREVNRLDMEDISFHKRVREGYLQVVERFSDRIVLVNADQPMEKLIEEVIQVIEDKLL	soluble
MKHSLPDLPYDYADLEPVISHEIMQLHHQKHHATYVNNLNQIEEKLHEAVSKGNVKEAIALQPALKFNGGGHINHSIFWTNLAKDGGEPSAELLTAIKSDFGSLDNLQKQLSASTVAVQGSGWGWLGYCPKGKILKVATCANQDPLEATTGLVPLFGIDVWEHAYYLQYKNVRPDYVNAIWKIANWKNVSERFAKAQQ	soluble
MKICAVVVTYNRKDLLVECLEALRRQTGPLDAIYIIDNASTDGTPHLLMEGGYIDDPDGSVKNLPDHHGRSLKIVYVRLNENTGGAGGFYKGVRRAFHDEYDWIWLMDDDVEPEEYTLEKLLKASERIPEDVSAVAPVRFFQGSLFISETKTFNFRNPLKHFTYDFITDDDLKEEYFKISAISFEGLLIKREAIERIGFPDKSLFIIADDTDYAIRLRDYGPIYMVSGARLIKKVAAEPDFNWKGFYHLRNVIYLDRKYGENILVRYLRPLRTLIIVTYQCLKYKPSGFKYLLKAFWEGYTLKRGKTVKPGEFLEHHHHHH	soluble
MKIDILDKGFVELVDVMGNDLSAVRAARVSFDMGLKDEERDRHLIEYLMKHGHETPFEHIVFTFHVKAPIFVARQWFRHRIASYNELSGRYSKLSYEFYIPSPERLEGYKTTIPPERVTEKISEIVDKAYRTYLELIESGVPREVARIVLPLNLYTRFFWTVNARSLMNFLNLRADSHAQWEIQQYALAIARIFKEKCPWTFEAFLKYAYKGDILKEVQV	not soluble
MKIEKTSNFAPINLLYKKKTSFNSRGIFLIIAFNNSSFNLIYKNNNKSYKSTRLNTILRKKNRVIEQVLDKDIIVVPLGGLGEIGMNCMLIGSKKRFILIDCGIMFTDLSHLGIQKVIPDINFLTHIQNLIEGLIITHGHEDHIGAINWVLPILRTDALVYTSRFVYNIISKRIDKQNYLFKKLFRIFDLKKRFQLGPFECEAFRVTHSIPDCCGFVIRSKYGLIVHTGDWKIDEFPLDGEKFDREFLESISKEKVLLMMSDSTNSLSHGRTASEKVVQDSLVSIITNPKIKGRIITTQFASNVFRLYSIKKAADISKKKICFLGTSLNSYLDASLLDGRAPFHPSELVQESELKNIDPDKIIIVTTGSQGEARSTLNLSSLDLSPRLSLNPYDTIIYSAKIIPGNDKKVVRMLNRISSHGCKIIYGNQAKIHTSGHAYEDELKEILKIVKPSYFLPVHGELISLNVHSSIALQNCGIKNTIVMRNGQVLSLESDNQNPLGFKLFNLSGEINLVNHYNTGSSILGSYADIGISDKIKISNEGIILISLEFVRIKESDTYVSFKSKLRISSRGIWIDRGKLNFIIKKLLFNILNKCRTNISIISLEQIISETMNYSCYKINRSNPEIIVYANELTNI	soluble
MKIGVLGLQGAVREHVRAIEACGAEAVIVKKSEQLEGLDGLVLPGGESTTMRRLIDRYGLMEPLKQFAAAGKPMFGTCAGLILLAKRIVGYDEPHLGLMDITVERNSFGRQRESFEAELSIKGVGDGFVGVFIRAPHIVEAGDGVDVLATYNDRIVAARQGQFLGCSFHPELTDDHRLMQYFLNMVKEAKMASSLK	soluble
MKIKSIEARNISIPLNRPIHNPAFKFTHCKYTIVTVTTDEDITGWSFSFGMHHTKAVVDELAEILVGEEIDTRRLYEKMMRTQAVRWDRGGISMRALSAIDIALWDIVGKSCGLPLYRLMGCYREEIPVYYSGGHYPVDSTKTSDMLDYLEQDIGKGLDRGFSSFKIKIGGAAVNQDLERIAFCRKLIGPYRRLMVDAFCAYEADVIIPMAKKFEQYDIGFLEEPVALDDIPGCAYVAANVSMPVALGESHYTMAQFRDIINSKAARILQPDVAYVGGITGFMQYAGIAAYHGLRLAPHWCHDLSVQLALSIPQIRELEYMDQNSALFLIQKVIENPVTAKNGIVRAPEGAGHGLVLDEKAVERYLA	soluble
MKIKSIEPTPSPNTMKVILTEELPAGKSNNYKPEQAEGAPLVIAEILKIDGVKGVYHVADFLAVERNARYDWKDILPQVRTAFGMESAESAEENRSDQESFGEVKVFVQMFSGIPMQVKLTDGEREERFGLPERFQQAILKLRSEASNVVFERAWKEQGVRFGDFDEIGHDVTEELQAAYSDERLKRLTEAAAQGKGEAKQAVQRKAYKVTLDMLDDEDWKKRYAHLEQMDPKEEDIPVLQKALDDPKVSIRRQAVVYLGMIETPDVLPLLYKALEDKAVSVRRTAGDCLSDIGDPQAIPAMIKSLSDSSKLVRWRAAMFLYEVGDESAIEALRAAEDDPEFEVSLQVKMALERIEHGEEAKGSVWKQMTESRKKGE	soluble
MKILILGNGQVGSTVAQNLAAIPNNDVTVIDIDEKALQETGSRLDVQTVFGNGASPFTLERAGAEDADLLLALSRSDETNIVACKVAADLFNIPGRIARVRSSEYLEYLSPKLENNENGSLSIFGITETISPEQLVTEQLAGLIDCPGALQVLRFADDRVRMVIIQARRGGLLVGRSIADIAQDLPDGADCQICAVYRNNRLIVPAPQTVIIEGDEILFAAAAENIGAVIPELRPKETSTRR	not soluble
MKILLIGASGTLGSAVKERLEKKAEVITAGRHSGDVTVDITNIDSIKKMYEQVGKVDAIVSATGSATFSPLTELTPEKNAVTISSKLGGQINLVLLGIDSLNDKGSFTLTTGIMMEDPIVQGASAAMANGAVTAFAKSAAIEMPRGIRINTVSPNVLEESW	not soluble
MKILLRNALITNEGKTFPGSVMIDGAFISRIIEGELPADDNLSADEVIECSGLRLFPGCIDDQVHFREPGLTHKATIASESRAAVAGGVTSFMDMPNTNPPTTMWERLLEKRQIGADTAWANYGFFFGGTNDNIDEIKRVDKHLVPGLKLFLGSSTGNMLVDNKETLEKIFGECDLLIATHCEKEEIIRANKEHYKAKYGNDLDIHFHPLIRSEEACYRSSAEAVELAERMNARLHILHLSTEKELSLFRNDIPTAQKRITSEVCVHHLWFSDTDYGRLGNRIKWNPAIKKESDREALRAAVRNGRIDIIATDHAPHLLREKEGSCLQAASGGPLVQHSLLALLELCNQ	not soluble
MKILLRNALITNEGKTFPGSVMIDGAFISRIIEGELPADDNLSADEVIECSGLRLFPGCIDDQVHFREPGLTHKATIASESRAAVAGGVTSFMDMPNTNPPTTMWERLLEKRQIGADTAWANYGFFFGGTNDNIDEIKRVDKHLVPGLKLFLGSSTGNMLVDNKETLEKIFGECDLLIATHCEKEEIIRANKEHYKAKYGNDLDIHFHPLIRSEEACYRSSAEAVELAERMNARLHILHLSTEKELSLFRNDIPTAQKRITSEVCVHHLWFSDTDYGRLGNRIKWNPAIKKESDREALRAAVRNGRIDIIATDHAPHLLREKEGSCLQAASGGPLVQHSLLALLELCNQGIFSIEEIVSKTAHIPATLFAIEKRGYIRPGYYADLVLVDPSSPHTVSADNILSLCGWSPFEGFTFSHSVAYTFVNGCLAYAKGRLAESRPTVHPLFFNR	soluble
